The values below come from paper PMC3042951 (The journal of physical chemistry. B, 2010).

One may read the stoichiometry N as a count of units in the complex or per binding partner.

The series deals with the molecule itself. The series can be described thus: cross-linking.

B1: native human LysRS (70–584) T285C (enzyme)
chain: not shown
B1: the “stoichiometry N” value turned out to be 2.
